# In PMC2953525, “Subtle Alterations in PCNA-Partner Interactions Severely Impair DNA Replication and Repair” (PLoS Biology, 2010):
# Experiments:
# Msh6 PIP peptide = assay: SPR analysis of PCNA binding to PIP peptide; design: species or system yeast; details: peptide 5-5,000 nM
# Text: (§1) To quantify differences in binding affinities of the PCNA mutants relative to the WT, we characterized four PCNA mutants with increased affinity for PIP peptides derived from Rad30, Pol32, Msh6, and Ung1 partners using SPR. These mutants were overexpressed in E. coli, purified by affinity chromatography, and immobilized on an SPR sensor chip for binding characterization. SPR binding analysis enabled direct and sensitive measurement of interaction affinities relative to the Y2H system and indicated an up to 8-fold increase in binding affinity for the different PIP peptides, relative to WT PCNA (Table 1). Such analysis allowed the detection of a significant decrease in the Rad30 PIP peptide dissociation rate in the Pol30-Rad30E9p mutant relative to the WT, indicating a ∼9-fold increase in the lifetime of the PCNA-Rad30 complex (see Table 1). Collectively the ELISA, Y2H, and SPR assays validated and quantified the increase in mutant PCNA binding affinities, relative to WT PCNA.
# (§2) Protein interaction assays were carried out using the ProteOn XPR36 (Bio-Rad) instrument. WT or PCNA mutants (0.4 to 5.2 fmol) were immobilized on the surface of a GLM sensor chip by a carbodiimide-activated succinimide-coupling method, as specified by the manufacturer. All SPR experiments were performed by flowing 150 µl of the target peptide at a flow rate of 30 µl/min onto the PCNA-bound chip. Different concentrations (5–5,000 nM) of PIP peptides (Table 1) were injected over the PCNA chip, and binding parameters were determined using ProteOn XPR36 software (Bio-Rad). The ligand (PCNA) and analyte (peptide) buffers were PBST and 150 mM NaCl, 1 mM EDTA, 0.01% Tween-80, 30 mM Hepes, pH 7.5, respectively.
# Pol32 PIP peptide = assay: SPR analysis of PCNA binding to PIP peptide; design: species or system yeast; details: peptide 5-5,000 nM
# Text: as §1, §2
# Rad30 PIP peptide = assay: SPR analysis of PCNA binding to PIP peptide; design: species or system yeast
# Text: as §1, §2
# yeast strains = assay: Growth sensitivity of PCNA mutant strains to MMS and HU; type: cell-based; details: for effect of overexpression of Rad27, Rad30, Pol32, and Msh6 on growth sensitivity to DNA damaging agents: Figure S9, GAL1/10 inducible GST-tagged partners; for effect of rad30 deletion on strain growth sensitivity phenotype: Figure 6B; for effect of rad27 deletion on growth sensitivity of the mutant strain: Figure S8, parent vs rad27-deleted strains
# Text: Next, we examined the sensitivity of strains containing single deletions of each of the five different partners on a WT PCNA background. […] We first examined whether the rad27 deletion can suppress the lethality of a strain containing the pol30-Rad27L1 or pol30-Rad27L2 mutants (Figure 6A). […] In addition, we examined whether rad30 deletion, ung1 deletion, and msh6 deletion can suppress the phenotypes of the pol30 mutants with increased affinity to Rad30, Ung1, and Msh6, respectively (Figure 6B–D). […] However, since the suppression of the strain phenotypes was not complete, additional factors, such as minor effects of the mutations on other PCNA-partner interactions, may play a partial role in the sensitivity phenotype of the examined pol30 mutants. […] We also examined whether overexpression of different partners can suppress the growth sensitivity of the pol30 mutants, however no suppression was observed (Figure S9).
# Novel haploids containing PCNA mutants were generated using the plasmid shuffling method. Briefly, a pol30::KanMX magic marker heterozygote diploid strain BY4743 (Open Biosystem) was transformed with plasmid pRS316-POL30. Following dissection of the diploid, a haploid containing the CAN+ gene and plasmid pRS316-POL30 as a sole source of PCNA was generated. This host strain was transformed with selected pRS315-pol30 mutants, plated on SC-Ura-Leu plates, followed by replica plating to SC-Leu+5FOA plates. Haploids, containing PCNA mutants as a sole source, were further verified by plating on either SC-Leu or SC-Ura plates. For testing selected PCNA mutants, a haploid containing rad27::HYG, rad30::HYG, pol32::HYG, msh6::HYG, or ung1::HYG were generated using plasmid pAG32 by conventional genetic approaches. Growth of the PCNA mutant strains in the presence of 120 mM HU (Toronto Research Chemicals) or 0.02% MMS (Sigma) was performed as described. To examine the effects of partner overexpression on pol30 mutant strains, these strains were transformed with various plasmids containing GST-tagged PCNA partner encoding genes under the control of a GAL1/10 inducible promoter, as previously described. Overnight cultures were plated in serial dilutions on SC-Ura containing either glucose or galactose with or without DNA-damaging agents, as described above.
# [1] = footnote d, PCNA immobilized on GLM chip
molecule,measurement,setting,value
"POL30: wild-type yeast PCNA (POL30), IDCL sequence DIDADFLKIEEL",Kd,"Msh6 PIP peptide; PCNA immobilized, ProteOn XPR36, read-out: Binding affinity for Msh6 PIP peptide (SPR)",3000 nM
same,Kd,"Pol32 PIP peptide; PCNA immobilized, ProteOn XPR36, read-out: Binding affinity for Pol32 PIP peptide (SPR)",360 nM
same,Kd,"Rad30 PIP peptide; PCNA immobilized, peptide 5-5,000 nM, ProteOn XPR36, read-out: Binding affinity for Rad30 PIP peptide (SPR)",170 nM
same,off-rate (kd) of the Rad30 PIP peptide,Rad30 PIP peptide; SPR,0.03 s⁻¹
same,"effect of overexpression of Rad27, Rad30, Pol32, and Msh6 on growth sensitivity to DNA damaging agents",yeast strains,did not reduce the growth sensitivity
"pol30-Msh6E6: PCNA mutant evolved for Msh6, IDCL sequence DYDKDLLKIIEL (protein, left off: Gal4 activation domain, end not stated, kept) MLEAKFEEASLFKRIIDGFKDCVQLVNFQCKEDGIIAQAVDDSRVLLVSLEIGVEAFQEYRCDHPVTLGMDLTSLSKILRCGNNTDTLTLIADNTPDSIILLFEDTKKDRIAEYSLKLMDYDKDLLKIIELQYDSTLSLPSSEFSKIVRDLSQLSDSINIMITKETIKFVADGDIGSGSVIIKPFVDMEHPETSIKLEMDQPVDLTFGAKYLLDIIKGSSLSDRVGIRLSSEAPALFQFDLKSGFLQFFLAPKFNDEE",Fold increase in binding affinity for Msh6 PIP peptide relative to WT PCNA (SPR),Msh6 PIP peptide; [1],1.6 fold
"pol30-79: previously studied PCNA mutant with decreased partner binding, IDCL sequence DIDADFAKAEEL (protein, left off: Gal4 activation domain, end not stated, kept) MLEAKFEEASLFKRIIDGFKDCVQLVNFQCKEDGIIAQAVDDSRVLLVSLEIGVEAFQEYRCDHPVTLGMDLTSLSKILRCGNNTDTLTLIADNTPDSIILLFEDTKKDRIAEYSLKLMDIDADFAKAEELQYDSTLSLPSSEFSKIVRDLSQLSDSINIMITKETIKFVADGDIGSGSVIIKPFVDMEHPETSIKLEMDQPVDLTFGAKYLLDIIKGSSLSDRVGIRLSSEAPALFQFDLKSGFLQFFLAPKFNDEE","effect of overexpression of Rad27, Rad30, Pol32, and Msh6 on growth sensitivity to DNA damaging agents",yeast strains,did not reduce the growth sensitivity
"pol30-Rad30E2: PCNA mutant evolved for Rad30, IDCL sequence DDDWDFLKILEL (protein, left off: Gal4 activation domain, end not stated, kept) MLEAKFEEASLFKRIIDGFKDCVQLVNFQCKEDGIIAQAVDDSRVLLVSLEIGVEAFQEYRCDHPVTLGMDLTSLSKILRCGNNTDTLTLIADNTPDSIILLFEDTKKDRIAEYSLKLMDDDWDFLKILELQYDSTLSLPSSEFSKIVRDLSQLSDSINIMITKETIKFVADGDIGSGSVIIKPFVDMEHPETSIKLEMDQPVDLTFGAKYLLDIIKGSSLSDRVGIRLSSEAPALFQFDLKSGFLQFFLAPKFNDEE",effect of rad30 deletion on strain growth sensitivity phenotype,yeast strains,suppression
same,effect of rad27 deletion on growth sensitivity of the mutant strain,yeast strains,suppression of the growth sensitivity
"pol30-Rad30E9: PCNA mutant evolved for Rad30, IDCL sequence DNDWDFLKIDEL (protein, left off: Gal4 activation domain, end not stated, kept) MLEAKFEEASLFKRIIDGFKDCVQLVNFQCKEDGIIAQAVDDSRVLLVSLEIGVEAFQEYRCDHPVTLGMDLTSLSKILRCGNNTDTLTLIADNTPDSIILLFEDTKKDRIAEYSLKLMDNDWDFLKIDELQYDSTLSLPSSEFSKIVRDLSQLSDSINIMITKETIKFVADGDIGSGSVIIKPFVDMEHPETSIKLEMDQPVDLTFGAKYLLDIIKGSSLSDRVGIRLSSEAPALFQFDLKSGFLQFFLAPKFNDEE",off-rate (kd) of the Rad30 PIP peptide,Rad30 PIP peptide; SPR,0.00321 s⁻¹
same,fold increase in the lifetime of the PCNA-Rad30 complex,"Rad30 PIP peptide; SPR, from Rad30 PIP peptide dissociation rate, relative to the WT",~9 fold
same,Fold increase in binding affinity for Rad30 PIP peptide relative to WT PCNA (SPR),"Rad30 PIP peptide; footnote d, PCNA immobilized on GLM chip, peptide 5-5,000 nM",8.5 fold
same,effect of rad30 deletion on strain growth sensitivity phenotype,yeast strains,suppression
"pol30-Rad27E6: PCNA mutant evolved for Rad27, IDCL sequence DGDYDILKIREL (protein, left off: Gal4 activation domain, end not stated, kept) MLEAKFEEASLFKRIIDGFKDCVQLVNFQCKEDGIIAQAVDDSRVLLVSLEIGVEAFQEYRCDHPVTLGMDLTSLSKILRCGNNTDTLTLIADNTPDSIILLFEDTKKDRIAEYSLKLMDGDYDILKIRELQYDSTLSLPSSEFSKIVRDLSQLSDSINIMITKETIKFVADGDIGSGSVIIKPFVDMEHPETSIKLEMDQPVDLTFGAKYLLDIIKGSSLSDRVGIRLSSEAPALFQFDLKSGFLQFFLAPKFNDEE",effect of rad27 deletion on growth sensitivity of the mutant strain,yeast strains,only weak effect
same,"effect of overexpression of Rad27, Rad30, Pol32, and Msh6 on growth sensitivity to DNA damaging agents",yeast strains,did not reduce the growth sensitivity
"pol30-Pol32E5: PCNA mutant evolved for Pol32, IDCL sequence DADNDFLKISEL (protein, left off: Gal4 activation domain, end not stated, kept) MLEAKFEEASLFKRIIDGFKDCVQLVNFQCKEDGIIAQAVDDSRVLLVSLEIGVEAFQEYRCDHPVTLGMDLTSLSKILRCGNNTDTLTLIADNTPDSIILLFEDTKKDRIAEYSLKLMDADNDFLKISELQYDSTLSLPSSEFSKIVRDLSQLSDSINIMITKETIKFVADGDIGSGSVIIKPFVDMEHPETSIKLEMDQPVDLTFGAKYLLDIIKGSSLSDRVGIRLSSEAPALFQFDLKSGFLQFFLAPKFNDEE","effect of overexpression of Rad27, Rad30, Pol32, and Msh6 on growth sensitivity to DNA damaging agents",yeast strains,did not reduce the growth sensitivity
"pol30-Pol32E9 (protein, left off: Gal4 activation domain, end not stated, kept) MLEAKFEEASLFKRIIDGFKDCVQLVNFQCKEDGIIAQAVDDSRVLLVSLEIGVEAFQEYRCDHPVTLGMDLTSLSKILRCGNNTDTLTLIADNTPDSIILLFEDTKKDRIAEYSLKLMDNDVDSLKIIELQYDSTLSLPSSEFSKIVRDLSQLSDSINIMITKETIKFVADGDIGSGSVIIKPFVDMEHPETSIKLEMDQPVDLTFGAKYLLDIIKGSSLSDRVGIRLSSEAPALFQFDLKSGFLQFFLAPKFNDEE",Fold increase in binding affinity for Pol32 PIP peptide relative to WT PCNA (SPR),Pol32 PIP peptide; [1],2 fold
"pol30-Msh6E2: PCNA mutant evolved for Msh6, IDCL sequence DYDRDMLKISEL (protein, left off: Gal4 activation domain, end not stated, kept) MLEAKFEEASLFKRIIDGFKDCVQLVNFQCKEDGIIAQAVDDSRVLLVSLEIGVEAFQEYRCDHPVTLGMDLTSLSKILRCGNNTDTLTLIADNTPDSIILLFEDTKKDRIAEYSLKLMDYDRDMLKISELQYDSTLSLPSSEFSKIVRDLSQLSDSINIMITKETIKFVADGDIGSGSVIIKPFVDMEHPETSIKLEMDQPVDLTFGAKYLLDIIKGSSLSDRVGIRLSSEAPALFQFDLKSGFLQFFLAPKFNDEE",effect of rad27 deletion on growth sensitivity of the mutant strain,yeast strains,only weak effect
